Measured values taken from article PMC4476568.
Several values for one entry are separate records, joined by “and”; a condition that tells them apart may be missing. Identical values can stand only once.

Target: EGFP-labeled nuclear transport factor 2 (NTF2) (human) (UniProt P61970)
Experiment: fluorescence fluctuation spectroscopy brightness analysis (MSQ with z-scan FFS); living E. coli cells in agarose; two-photon excitation at 1000 nm, ~1 mW, focus at the geometric centre of the cell; MSQ-curve fit to Eqs 14 and 22; normalized brightness against EGFP in solution, corrected for cell geometry

stoichiometry N: 2.1 and 1.94
Substance: EGFP-labeled nuclear transport factor 2 (NTF2) (from UniProt P61970 1-127) (natural protein; other documents disagree on this pair)
